Assay results published in CN114685664A (UNIV INNER MONGOLIA AGRI, dated 2022).

T1: 人CD20胞外区多肽 (human)
T1 construct: Synthetic 47-residue peptide of the extracellular region of human CD20 (Sangon); also called CD20多肽; CD20抗原
T1 peptide: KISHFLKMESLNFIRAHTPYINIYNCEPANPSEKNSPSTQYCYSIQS

T2: Raji细胞表面CD20蛋白 (human, UniProt P11836 1-297)
T2 construct: whole, on cells; Raji cells used as CD20-positive cells; also called Raji细胞表面CD20分子
T2 sequence (looked up): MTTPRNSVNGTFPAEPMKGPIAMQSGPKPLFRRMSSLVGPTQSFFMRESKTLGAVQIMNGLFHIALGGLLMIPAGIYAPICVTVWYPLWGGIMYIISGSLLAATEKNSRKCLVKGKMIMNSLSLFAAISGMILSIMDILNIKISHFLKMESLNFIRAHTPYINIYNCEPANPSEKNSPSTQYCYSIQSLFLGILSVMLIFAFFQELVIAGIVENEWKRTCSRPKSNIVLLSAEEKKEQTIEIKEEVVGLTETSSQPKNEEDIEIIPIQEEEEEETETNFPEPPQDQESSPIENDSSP

B1: Anti-CD20/CD3 BsNb (bispecific antibody)
chain: EVQLLEEVQLVESGGGLVQPGGSLRLSCAASGFTFDDYGMSWVRQAPGKWLEWVSDISWNGGSTYYADSVKGRFTISRDNAENTLYLQMNSLKPDDTAVYYCAKMGEGGWGANDYWGQGTQVTVSSSGGGGSGGGGSGGGGSMAQVQLQMADVQLVESGGGLVQPGGSLRLSCTAPGFTSNNCGMDWWRQAAGKQREWVSSIATDGSTSYADSVKGRFTISKDKAKDTVFLQMNSLKPEDTAMYNCAMRRWGWGCLGRLWQSDFGYWGQGTQVTVSS
notes: Single chain: anti-CD20 sdAb, linker, anti-CD3 sdAb; also called CD20 sdAb-linker-CD3 sdAb; 抗CD20和CD3双特异性单域抗体
B2: sdAb11 (抗CD20单域重链抗体) (VHH)
VHH: DVQLVESGGGLVQPGGSLRLSCTAPGFTSNNCGMDWWRQAAGKQREWVSSIATDGSTSYADSVKGRFTISKDKAKDTVFLQMNSLKPEDTAMYNCAMRRWGWGCLGRLWQSDFGYWGQGTQVTVSS
notes: Expressed in E. coli BL21(DE3) from VHH-pET-25b-SBP and purified on Ni-NTA; also called CD20单域抗体; Anti-CD20 sdAb; not shown: tags from vector pET-25b-SBP (His tag detected with anti-His antibody; SBP)

What was measured:
人CD20胞外区多肽 [1] = target: T1, 人CD20胞外区多肽; assay: ELISA, CD20 extracellular peptide coated at 2.5 μg/mL, BsNb 30 to 5 μg/mL, HRP anti-His detection, OD450
Raji细胞表面CD20蛋白 [2] = target: T2, Raji细胞表面CD20蛋白; assay: flow cytometry, FITC-labelled BsNb 100 μg/mL on Raji cells
人CD20胞外区多肽 [3] = target: T1, 人CD20胞外区多肽; assay: phage ELISA, CD20 extracellular peptide coated at 2.5 μg/mL, OD450
Raji细胞表面CD20蛋白 [4] = target: T2, Raji细胞表面CD20蛋白; assay: immunofluorescence on fixed Raji cells, sdAb 10 μg/mL, fluorescent anti-His detection

| Binder | binding result (人CD20胞外区多肽 [1]) | binding result (Raji细胞表面CD20蛋白 [2]) | binding result (人CD20胞外区多肽 [3]) | binding result (Raji细胞表面CD20蛋白 [4]) |
| --- | --- | --- | --- | --- |
| B1 | binds | binds | – | – |
| B2 | – | – | binds | binds |
